Two molecules from paper PMC4997581 can be followed below.

For the assay, the target named is Cyclin B1 (human (endogenous in 293T and HFF)), P14635. Nature of the assay: co-IP. As to conditions: remark: other sources report otherwise.
Chain of Cyclin B1 (human (endogenous in 293T and HFF)), P14635 (P14635 whole entry): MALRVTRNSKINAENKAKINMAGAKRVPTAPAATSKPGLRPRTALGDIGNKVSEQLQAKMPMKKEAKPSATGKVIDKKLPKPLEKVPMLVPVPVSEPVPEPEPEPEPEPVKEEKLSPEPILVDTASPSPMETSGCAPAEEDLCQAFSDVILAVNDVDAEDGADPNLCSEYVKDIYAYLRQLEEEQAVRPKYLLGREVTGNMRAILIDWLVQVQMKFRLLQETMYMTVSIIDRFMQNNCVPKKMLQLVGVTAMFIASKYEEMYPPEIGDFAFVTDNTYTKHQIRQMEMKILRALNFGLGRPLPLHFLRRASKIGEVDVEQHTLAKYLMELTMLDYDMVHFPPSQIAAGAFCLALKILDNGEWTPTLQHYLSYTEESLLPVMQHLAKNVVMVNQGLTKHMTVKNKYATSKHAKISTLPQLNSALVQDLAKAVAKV

B1: HCMV protein kinase pUL97, Flag-tagged (pUL97-Flag), P16788 1-707 (natural protein)
chain: MSSALRSRARSASLGTTTQGWDPPPLRRPSRARRRQWMREAAQAAAQAAVQAAQAAAAQVAQAHVDENEVVDLMADEAGGGVTTLTTLSSVSTTTVLGHATFSACVRSDVMRDGEKEDAASDKENLRRPVVPSTSSRGSAASGDGYHGLRCRETSAMWSFEYDRDGDVTSVRRALFTGGSDPSDSVSGVRGGRKRPLRPPLVSLARTPLCRRRVGGVDAVLEENDVELRAESQDSAVASGPGRIPQPLSGSSGEESATAVEADSTSHDDVHCTCSNDQIITTSIRGLTCDPRMFLRLTHPELCELSISYLLVYVPKEDDFCHKICYAVDMSDESYRLGQGSFGEVWPLDRYRVVKVARKHSETVLTVWMSGLIRTRAAGEQQQPPSLVGTGVHRGLLTATGCCLLHNVTVHRRFHTDMFHHDQWKLACIDSYRRAFCTLADAIKFLNHQCRVCHFDITPMNVLIDVNPHNPSEIVRAALCDYSLSEPYPDYNERCVAVFQETGTARRIPNCSHRLRECYHPAFRPMPLQKLLICDPHARFPVAGLRRYCMSELSALGNVLGFCLMRLLDRRGLDEVRMGTEALLFKHAGAACRALENGKLTHCSDACLLILAAQMSYGACLLGEHGAALVSHTLRFVEAKMSSCRVRAFRRFYHECSQTMLHEYVRKNVERLLATSDGLYLYNAFRRTTSIICEEDLDGDCRQLFPE
Molecule B1 registered a pUL97 co-IP Western blot signal relative to cyclin B1 of 100%.

B2: pUL97 stably expressed in transduced HFFs, P16788 1-707 (natural protein)
chain: MSSALRSRARSASLGTTTQGWDPPPLRRPSRARRRQWMREAAQAAAQAAVQAAQAAAAQVAQAHVDENEVVDLMADEAGGGVTTLTTLSSVSTTTVLGHATFSACVRSDVMRDGEKEDAASDKENLRRPVVPSTSSRGSAASGDGYHGLRCRETSAMWSFEYDRDGDVTSVRRALFTGGSDPSDSVSGVRGGRKRPLRPPLVSLARTPLCRRRVGGVDAVLEENDVELRAESQDSAVASGPGRIPQPLSGSSGEESATAVEADSTSHDDVHCTCSNDQIITTSIRGLTCDPRMFLRLTHPELCELSISYLLVYVPKEDDFCHKICYAVDMSDESYRLGQGSFGEVWPLDRYRVVKVARKHSETVLTVWMSGLIRTRAAGEQQQPPSLVGTGVHRGLLTATGCCLLHNVTVHRRFHTDMFHHDQWKLACIDSYRRAFCTLADAIKFLNHQCRVCHFDITPMNVLIDVNPHNPSEIVRAALCDYSLSEPYPDYNERCVAVFQETGTARRIPNCSHRLRECYHPAFRPMPLQKLLICDPHARFPVAGLRRYCMSELSALGNVLGFCLMRLLDRRGLDEVRMGTEALLFKHAGAACRALENGKLTHCSDACLLILAAQMSYGACLLGEHGAALVSHTLRFVEAKMSSCRVRAFRRFYHECSQTMLHEYVRKNVERLLATSDGLYLYNAFRRTTSIICEEDLDGDCRQLFPE
On to B2, for which the pUL97 co-IP Western blot signal relative to cyclin B1 came to 100%.
